What all share (type): physicochemical
The nature of series [1]: Small angle X-ray scattering (SAXS) of micelles. Conditions: 1 wt % β-casein, empty or loaded 1:8 protein:celecoxib, pH ~7.
Series [2] in a line: Isothermal titration calorimetry (ITC) of β-casein micellization. As for the experimental part: […] The reaction cell (V=1.43 mL) was filled with degassed solvent (lactic acid at pH 2.6, or phosphate buffer at pH 7.0). The injector-stirrer syringe (289 μL) was loaded with a β-casein micellar solution (20 mg/mL). The micellar solution was injected into the reaction cell in 28 steps of 10 μL aliquots each, and the heat flow was measured. During the titration, the stirring speed was 310 rpm. The duration of each injection was 20 s, and the equilibration time between consecutive injections was 3 min. Such an interval was sufficient to equilibrate the reaction cell after every injection. Each experiment was performed at least three times. Calorimetric data analysis was carried out using Origin 5.0 software (MicroCal).
β-casein micellar solution was titrated into lactic acid buffer (pH 2.6) placed in the ITC cell, and the heat flow was measured as a function of time (FIG. 6A). Three factors contribute to the exothermic enthalpy changes observed at the initial injections: micelle dilution, demicellization, and dilution of individual β-casein molecules. The enthalpy changes decrease in magnitude as more protein is added and the concentration in the ITC cell increases. Eventually, the concentration in the cell exceeds the CMC and only micelle dilution contributes to the heat flow. In FIG. 6B the heat of the reaction, obtained by integrating the peaks of the individual injections given in FIG. 6A, is plotted against the β-casein concentration in the cell. A slow increase in the reaction enthalpy was observed, resulting in micellixation relative cooperativity (MR) of 0.14 mM (FIG. 6b), which is more than twice than the value found at pH 7.0 and IS of 0.1. FIG. 6B also presents the heat of demicellization, ΔHdemic, which equals the enthalpy difference between the two asymptotes of the sigmoid fit of the experimental data (obtained by using the Origin software). It is shown that at 24° C. ΔHdemic is ≦17.9 kJ/mol, relatively small compared with the −40.53 kJ/mol found at pH 7.0 and IS of 0.1. […] This value is approximately twice the CMC found at pH 7 and ionic strength 0.1. The small ΔHdemic, the high CMC, and the large MR indicate that the driving forces for micellization under acidic conditions are reduced compared with those at physiological pH and high IS.

Series [3] is described as follows: Analytical ultracentrifugation (sedimentation equilibrium). As for the experimental part:
Sedimentation equilibrium experiments were performed at 24° C. using a Beckman Optima XL-A (Palo Alto, Calif.) analytical centrifuge at 6,000, 10,000, and 12,000 rpm for the low-pH solutions and at 4,000, 6,000, and 8,000 rpm for the pH 7.0 solutions. Data were collected at 280 nm. The β-casein solutions were studied at concentrations ranging from 0.2 to 10.0 mg/mL at pH 2.6 and from 0.2 to 2 mg/mL at pH 7.0 and an ionic strength of 0.1. […] The average apparent molecular weight of the micelles at the various protein concentrations was calculated following methods well known in the art (The partial specific volume νj of the solute was taken to be […], and a solution density F of 1.0044 g/cm^3 was measured). At β-casein concentrations of 2 mg/mL and above under low pH conditions, the plot of the natural logarithm of the measured absorbance versus the square of the radius from the axis of rotation was not linear. To estimate Nagg, the limiting slope toward the outer edge of the sample cell was used to provide d ln(c)/dr^2. The molecular weight calculated using this slope was divided by the monomer molecular weight calculated from the β-casein amino acid sequence (24,000).
To determine the aggregation number of the micelles at pH 2.6, analytical ultracentrifugation experiments were conducted at various protein concentrations and at […] and IS of 0.002. Sample data are plotted in FIG. 7, showing data with the protein concentration at 5 mg/ml, and ionic strength (IS) of 0.002. […] The aggregation numbers calculated from the slope of this line confirmed that the protein is monomeric at these concentrations. At concentrations higher than the CMC, two regions could be defined, indicating the presence of two protein populations: monomers at relatively short radii (i.e., in FIG. 7 at r<6.5 or r2<43) and assemblies at large radii. The micelles at pH 2.6 are characterized by a small aggregation number of 3 around the CMC and 6 at higher concentrations. In contrast, Nagg of 20 was measured at pH 7.0 and ionic strength 0.1. […]

The values that follow come from patent publication US8871276B2, “Beta-casein assemblies for mucosal delivery of therapeutic bioactive agents” (Technion Research and Development Foundation Ltd., priority 2008, dated 2014).

B1: β-casein: bovine β-casein self-assembled into unloaded micelles in acidic or neutral buffer (protein, UniProt P02666 16-224, looked up)
Beta-casein: RELEELNVPGEIVESLSSSEESITRINKKIEKFQSEEQQQTEDELQDKIHPFAQTQSLVYPFPGPIPNSLPQNIPPLTQTPVVVPPFLQPEVMGVSKVKEAMAPKHKEMPFPKYPVEPFTESQSLTLTDVENLHLPLPLLQSWMHQPHQPLPPTVMFPPQSVLSLSQSKVLPVPQKAVPYPQRDMPIQAFLLYQEPVLGPVRGPFPIIV
modifications: self-assembled micelles
notes: bovine β-casein self-assembled into unloaded micelles in acidic or neutral buffer
For the molecule B1, the Density in series [1] came to 1.23 g/mL. Moreover, in series [2] (lactic acid pH 2.6, 24 °C), the “Micellization relative cooperativity (MR)” value is listed as 0.14 mM. For the same molecule, the “Heat of demicellization ΔHdemic” value was at most 4.28 kcal/mol in series [2] (pH 2.6, 24 °C) and -9.687 kcal/mol in series [2] (pH 7.0, IS 0.1). The CMC in series [2] (pH 2.6, 24 °C, by ITC) worked out at 1.89 mg/mL; in series [2] (pH 2.6, 25 °C, by ITC) it was 0.19 wt %; in series [2] (pH 2.6, by ITC), 0.079 mM. Further, the “Aggregation number (ultracentrifugation)” value in series [3] (pH 2.6, around the CMC) was determined as 3; in series [3] (pH 2.6, concentrations higher than the CMC, 24-25 °C), 6. Further, in series [3] (pH 7.0, ionic strength 0.1), the “Nagg (ultracentrifugation)” value came to 20.
